Laboratory results: PMC5119734

Legend:
[1] = target: Group B Streptococcus glyceraldehyde 3-phosphate dehydrogenase, wild type (Streptococcus agalactiae (Group B Streptococcus)); assay: SEC; Superdex 200 in 25 mM Hepes, 100 mM NaCl, 5 mM beta-mercaptoethanol, pH 7.35
[2] = target: Group B Streptococcus glyceraldehyde 3-phosphate dehydrogenase, wild type (Streptococcus agalactiae (Group B Streptococcus)); assay: crystal structure; hanging drop vapor diffusion at 295 K, 20-28% PEG4000, 0.1 M MES pH 6.5; apo, mixed-holo, holo (2 mM NAD) and ternary (2 mM NAD, 11 mM DL-G3H) crystals; four subunits in the asymmetric unit

- stoichiometry N [1]: 4
- stoichiometry N [2]: 4
Substance: Group B Streptococcus glyceraldehyde 3-phosphate dehydrogenase, wild type (enzyme)
